# Data from patent US11840557B2, “Wnt7 variants capable of activating g-protein coupled receptor (Gpr)124/Reck/frizzled/lipoprotein receptor-related protein (LRP)-mediated Wnt signaling” (UNIVERSITÉ LIBRE DE BRUXELLES, priority 2018, dated 2023).
# System: all 10 Fz genes
# Test: STF luciferase assay after co-transfection with all 10 Fz genes, no Gpr124/Reck
# Format: cell-based
# Settings: in the absence of Gpr124/Reck
# Protocol: Cells were plated into 96-well plates and transfected after 24 h in triplicate with Lipofectamine 2000 (Invitrogen, Carlsbad, Calif.). The amount of plasmid DNA transfected per well was optimized for each expression vector: Renilla luciferase (0.5 ng), Wnt (20 ng), Fz (5 ng), LRP (2.5 ng), Gpr124 (10 ng), Reck (10 ng) unless otherwise indicated. The total amount of DNA was adjusted to 100 ng per well with the empty pCS2 vector. Cells were harvested in passive lysis buffer (E1960, Promega, Wisconsin) and the activities of the Firefly and Renilla luciferases were measured sequentially using the Dual-Luciferase Reporter Assay system (E1960, Promega, Madison, Wis.) 48 h post-transfection.
molecule,measurement,value
"Wnt7a^1-278: the N-terminal domain of Wnt7a, single domain truncated variant (protein, left off: small tags and cut ends, the N-terminal domain of Wnt7a, single domain truncated variant) LGASIICNKIPGLAPRQRAICQSRPDAIIVIGEGSQMGLDECQFQFRNGRWNCSALGERTVFGKELKVGSREAAFTYAIIAAGVAHAITAACTQGNLSDCGCDKEKQGQYHRDEGWKWGGCSADIRYGIGFAKVFVDAREIKQNARTLMNLHNNEAGRKILEENMKLECKCHGVSGSCTTKTCWTTLPQFRELGYVLKDKYNEAVHVEPVRASRNKRPTFLKIKKPLSYRKPMDTDLVYIEKSPNYC",signaling through any Fz,failed to signal through any Fz
